Measurements taken from patent US20230416347A1 (UNIVERSITY OF TENNESSEE RESEARCH FOUNDATION, published 2023).

Tests used:
[1] = target: T1, Len(1-22) monomer peptide (Homo sapiens (Human), UniProt P06312 21-42); test: SPR, antibody as ligand, peptide as analyte
T1 construct: Analyte in SPR; on beads in the pulldown assay; also called Vκ4(LEN(1-22) beads)
T1 peptide: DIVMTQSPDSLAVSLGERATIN

TAL ALκ liver extract = target: T2, TAL ALκ liver extract; test: EuLISA
T2 construct: Human AL amyloid extract; also called ALκ (TAL); ALκ TAL

rVλ6Wil fibrils = target: T3, rVλ6Wil fibrils; test: EuLISA
T3 construct: domain: λ6 variable domain; Synthetic amyloid-like fibrils; also called rVλWIL; rVλ6Wil synthetic fibrils

Per125 wtATTR extract = Per125 wtATTR extract (human, UniProt P02766 21-147); test: EuLISA
SHI ALλ liver extract = target: T4, SHI ALλ liver extract; test: EuLISA
T4 construct: Human AL amyloid extract; also called ALλ (SHI); ALλ SHI extract

B1: VH9 + VL4-G34A (antibody, V domains shown)
VH: QVQLQESGPGLVKPSETLSLTCTVSGFSLSSYGVSWIRQPPGKGLEWLGVIWGDGSTNYHPNLMSRVTISVDTSKSQVLFKLSSVTAADTAVYYCATLDYWGQGTSVTVSS
VL: DVVMTQSPLSLPVTLGQPASISCRSSQSLVHRNANTYLHWFQQRPGQSPRLLIYKVSNRFSGVPDRFSGSGSGTDFTLKISRVEAEDVGVYFCFQTTYVPNTFGGGTKLEIK
notes: Humanized 11-1F4 variant
Binder B1 has a Kd [1] of 30.4 nM, a koff [1] of 0.00181 s⁻¹ and a kon [1] of 59500 M⁻¹ s⁻¹.

B2: VH9 + VL4-N33A (antibody, V domains shown)
VH: QVQLQESGPGLVKPSETLSLTCTVSGFSLSSYGVSWIRQPPGKGLEWLGVIWGDGSTNYHPNLMSRVTISVDTSKSQVLFKLSSVTAADTAVYYCATLDYWGQGTSVTVSS
VL: DVVMTQSPLSLPVTLGQPASISCRSSQSLVHRAGNTYLHWFQQRPGQSPRLLIYKVSNRFSGVPDRFSGSGSGTDFTLKISRVEAEDVGVYFCFQTTYVPNTFGGGTKLEIK
notes: Humanized 11-1F4 variant
With B2 the Kd [1] was 88.5 nM, the koff [1] was 0.001 s⁻¹ and the kon [1] was 11300 M⁻¹ s⁻¹.

B3: VH9 + VL4-N33E (antibody, V domains shown)
VH: QVQLQESGPGLVKPSETLSLTCTVSGFSLSSYGVSWIRQPPGKGLEWLGVIWGDGSTNYHPNLMSRVTISVDTSKSQVLFKLSSVTAADTAVYYCATLDYWGQGTSVTVSS
VL: DVVMTQSPLSLPVTLGQPASISCRSSQSLVHREGNTYLHWFQQRPGQSPRLLIYKVSNRFSGVPDRFSGSGSGTDFTLKISRVEAEDVGVYFCFQTTYVPNTFGGGTKLEIK
notes: Humanized 11-1F4 variant
Work on B3 yielded a Kd [1] of 106 nM, a koff [1] of 0.00131 s⁻¹ and a kon [1] of 12300 M⁻¹ s⁻¹.

B4: VH9 + VL4-N33H (antibody, V domains shown)
VH: QVQLQESGPGLVKPSETLSLTCTVSGFSLSSYGVSWIRQPPGKGLEWLGVIWGDGSTNYHPNLMSRVTISVDTSKSQVLFKLSSVTAADTAVYYCATLDYWGQGTSVTVSS
VL: DVVMTQSPLSLPVTLGQPASISCRSSQSLVHRHGNTYLHWFQQRPGQSPRLLIYKVSNRFSGVPDRFSGSGSGTDFTLKISRVEAEDVGVYFCFQTTYVPNTFGGGTKLEIK
notes: Humanized 11-1F4 variant
B4 gave a Kd [1] of 56.6 nM, a koff [1] of 0.000743 s⁻¹ and a kon [1] of 13100 M⁻¹ s⁻¹.

B5: VH9 + VL4-N33Q (antibody, V domains shown)
VH: QVQLQESGPGLVKPSETLSLTCTVSGFSLSSYGVSWIRQPPGKGLEWLGVIWGDGSTNYHPNLMSRVTISVDTSKSQVLFKLSSVTAADTAVYYCATLDYWGQGTSVTVSS
VL: DVVMTQSPLSLPVTLGQPASISCRSSQSLVHRQGNTYLHWFQQRPGQSPRLLIYKVSNRFSGVPDRFSGSGSGTDFTLKISRVEAEDVGVYFCFQTTYVPNTFGGGTKLEIK
notes: Humanized 11-1F4 variant
Binder B5 has a Kd [1] of 78.4 nM, a koff [1] of 0.00104 s⁻¹ and a kon [1] of 13300 M⁻¹ s⁻¹.

B6: VH9 + VL4-N33S (antibody, V domains shown)
VH: QVQLQESGPGLVKPSETLSLTCTVSGFSLSSYGVSWIRQPPGKGLEWLGVIWGDGSTNYHPNLMSRVTISVDTSKSQVLFKLSSVTAADTAVYYCATLDYWGQGTSVTVSS
VL: DVVMTQSPLSLPVTLGQPASISCRSSQSLVHRSGNTYLHWFQQRPGQSPRLLIYKVSNRFSGVPDRFSGSGSGTDFTLKISRVEAEDVGVYFCFQTTYVPNTFGGGTKLEIK
notes: Humanized 11-1F4 variant
Binder B6 has a Kd [1] of 66.9 nM, a koff [1] of 0.000954 s⁻¹ and a kon [1] of 14300 M⁻¹ s⁻¹.

B7: VH9-D54A + VL4 (antibody, V domains shown)
VH: QVQLQESGPGLVKPSETLSLTCTVSGFSLSSYGVSWIRQPPGKGLEWLGVIWGAGSTNYHPNLMSRVTISVDTSKSQVLFKLSSVTAADTAVYYCATLDYWGQGTSVTVSS
VL: DVVMTQSPLSLPVTLGQPASISCRSSQSLVHRNGNTYLHWFQQRPGQSPRLLIYKVSNRFSGVPDRFSGSGSGTDFTLKISRVEAEDVGVYFCFQTTYVPNTFGGGTKLEIK
notes: Humanized 11-1F4 variant
Binder B7 has a Kd [1] of 2180 nM, a koff [1] of 0.000778 s⁻¹ and a kon [1] of 356 M⁻¹ s⁻¹.

B8: VH9-D54E + VL4 (antibody, V domains shown)
VH: QVQLQESGPGLVKPSETLSLTCTVSGFSLSSYGVSWIRQPPGKGLEWLGVIWGEGSTNYHPNLMSRVTISVDTSKSQVLFKLSSVTAADTAVYYCATLDYWGQGTSVTVSS
VL: DVVMTQSPLSLPVTLGQPASISCRSSQSLVHRNGNTYLHWFQQRPGQSPRLLIYKVSNRFSGVPDRFSGSGSGTDFTLKISRVEAEDVGVYFCFQTTYVPNTFGGGTKLEIK
notes: Humanized 11-1F4 variant
Binder B8 has a Kd [1] of 163 nM, a koff [1] of 0.00135 s⁻¹ and a kon [1] of 8280 M⁻¹ s⁻¹.

B9: VH9-D54H + VL4 (antibody, V domains shown)
VH: QVQLQESGPGLVKPSETLSLTCTVSGFSLSSYGVSWIRQPPGKGLEWLGVIWGHGSTNYHPNLMSRVTISVDTSKSQVLFKLSSVTAADTAVYYCATLDYWGQGTSVTVSS
VL: DVVMTQSPLSLPVTLGQPASISCRSSQSLVHRNGNTYLHWFQQRPGQSPRLLIYKVSNRFSGVPDRFSGSGSGTDFTLKISRVEAEDVGVYFCFQTTYVPNTFGGGTKLEIK
notes: Humanized 11-1F4 variant
In the case of B9, the Kd [1] is reported as 235 nM, the koff [1] is reported as 0.00139 s⁻¹ and the kon [1] is reported as 5930 M⁻¹ s⁻¹.

B10: VH9-D54Q + VL4 (antibody, V domains shown)
VH: QVQLQESGPGLVKPSETLSLTCTVSGFSLSSYGVSWIRQPPGKGLEWLGVIWGQGSTNYHPNLMSRVTISVDTSKSQVLFKLSSVTAADTAVYYCATLDYWGQGTSVTVSS
VL: DVVMTQSPLSLPVTLGQPASISCRSSQSLVHRNGNTYLHWFQQRPGQSPRLLIYKVSNRFSGVPDRFSGSGSGTDFTLKISRVEAEDVGVYFCFQTTYVPNTFGGGTKLEIK
notes: Humanized 11-1F4 variant
B10 was tested, and the Kd [1] was 256 nM, the koff [1] was 0.000997 s⁻¹ and the kon [1] was 3900 M⁻¹ s⁻¹.

B11: VH9-D54S + VL4 (antibody, V domains shown)
VH: QVQLQESGPGLVKPSETLSLTCTVSGFSLSSYGVSWIRQPPGKGLEWLGVIWGSGSTNYHPNLMSRVTISVDTSKSQVLFKLSSVTAADTAVYYCATLDYWGQGTSVTVSS
VL: DVVMTQSPLSLPVTLGQPASISCRSSQSLVHRNGNTYLHWFQQRPGQSPRLLIYKVSNRFSGVPDRFSGSGSGTDFTLKISRVEAEDVGVYFCFQTTYVPNTFGGGTKLEIK
notes: Humanized 11-1F4 variant
B11 showed a Kd [1] of 60.5 nM, a koff [1] of 0.000139 s⁻¹ and a kon [1] of 2300 M⁻¹ s⁻¹.

B12: VH9-G55A + VL4 (antibody, V domains shown)
VH: QVQLQESGPGLVKPSETLSLTCTVSGFSLSSYGVSWIRQPPGKGLEWLGVIWGDASTNYHPNLMSRVTISVDTSKSQVLFKLSSVTAADTAVYYCATLDYWGQGTSVTVSS
VL: DVVMTQSPLSLPVTLGQPASISCRSSQSLVHRNGNTYLHWFQQRPGQSPRLLIYKVSNRFSGVPDRFSGSGSGTDFTLKISRVEAEDVGVYFCFQTTYVPNTFGGGTKLEIK
notes: Humanized 11-1F4 variant
Binder B12 has a Kd [1] of 17.2 nM, a koff [1] of 0.000484 s⁻¹ and a kon [1] of 28200 M⁻¹ s⁻¹.

B13: VH9-G55V + VL4 (antibody, V domains shown)
VH: QVQLQESGPGLVKPSETLSLTCTVSGFSLSSYGVSWIRQPPGKGLEWLGVIWGDVSTNYHPNLMSRVTISVDTSKSQVLFKLSSVTAADTAVYYCATLDYWGQGTSVTVSS
VL: DVVMTQSPLSLPVTLGQPASISCRSSQSLVHRNGNTYLHWFQQRPGQSPRLLIYKVSNRFSGVPDRFSGSGSGTDFTLKISRVEAEDVGVYFCFQTTYVPNTFGGGTKLEIK
notes: Humanized 11-1F4 variant
In the case of B13, the Kd [1] is reported as 483 nM, the koff [1] is reported as 0.00163 s⁻¹ and the kon [1] is reported as 3380 M⁻¹ s⁻¹.

B14: VH9-M64A + VL4 (antibody, V domains shown)
VH: QVQLQESGPGLVKPSETLSLTCTVSGFSLSSYGVSWIRQPPGKGLEWLGVIWGDGSTNYHPNLASRVTISVDTSKSQVLFKLSSVTAADTAVYYCATLDYWGQGTSVTVSS
VL: DVVMTQSPLSLPVTLGQPASISCRSSQSLVHRNGNTYLHWFQQRPGQSPRLLIYKVSNRFSGVPDRFSGSGSGTDFTLKISRVEAEDVGVYFCFQTTYVPNTFGGGTKLEIK
notes: Humanized 11-1F4 variant
For B14, the Kd [1] was 13.3 nM, the koff [1] was 0.00104 s⁻¹ and the kon [1] was 77900 M⁻¹ s⁻¹.

B15: VH9-M64I + VL4 (antibody, V domains shown)
VH: QVQLQESGPGLVKPSETLSLTCTVSGFSLSSYGVSWIRQPPGKGLEWLGVIWGDGSTNYHPNLISRVTISVDTSKSQVLFKLSSVTAADTAVYYCATLDYWGQGTSVTVSS
VL: DVVMTQSPLSLPVTLGQPASISCRSSQSLVHRNGNTYLHWFQQRPGQSPRLLIYKVSNRFSGVPDRFSGSGSGTDFTLKISRVEAEDVGVYFCFQTTYVPNTFGGGTKLEIK
notes: Humanized 11-1F4 variant
Binder B15 has a Kd [1] of 20.7 nM, a koff [1] of 0.00192 s⁻¹ and a kon [1] of 92900 M⁻¹ s⁻¹.

B16: VH9-M64L + VL4 (antibody, V domains shown)
VH: QVQLQESGPGLVKPSETLSLTCTVSGFSLSSYGVSWIRQPPGKGLEWLGVIWGDGSTNYHPNLLSRVTISVDTSKSQVLFKLSSVTAADTAVYYCATLDYWGQGTSVTVSS
VL: DVVMTQSPLSLPVTLGQPASISCRSSQSLVHRNGNTYLHWFQQRPGQSPRLLIYKVSNRFSGVPDRFSGSGSGTDFTLKISRVEAEDVGVYFCFQTTYVPNTFGGGTKLEIK
notes: Humanized 11-1F4 variant
B16 gave a Kd [1] of 22.4 nM, a koff [1] of 0.00208 s⁻¹ and a kon [1] of 93000 M⁻¹ s⁻¹.

B17: VH9-M64V + VL4 (antibody, V domains shown)
VH: QVQLQESGPGLVKPSETLSLTCTVSGFSLSSYGVSWIRQPPGKGLEWLGVIWGDGSTNYHPNLVSRVTISVDTSKSQVLFKLSSVTAADTAVYYCATLDYWGQGTSVTVSS
VL: DVVMTQSPLSLPVTLGQPASISCRSSQSLVHRNGNTYLHWFQQRPGQSPRLLIYKVSNRFSGVPDRFSGSGSGTDFTLKISRVEAEDVGVYFCFQTTYVPNTFGGGTKLEIK
notes: Humanized 11-1F4 variant
Work on B17 yielded a Kd [1] of 21.8 nM, a koff [1] of 0.00052 s⁻¹ and a kon [1] of 23800 M⁻¹ s⁻¹.

B18: m11-1F4 (antibody, V domains shown)
VH: QVQLKESGPGLVAPSQSLSITCTVSGFSLSSYGVSWVRQPPGKGLEWLGVIWGDGSTNYHPNLMSRLSISKDISKSQVLFKLNSLQTDDTATYYCVTLDYWGQGTSVTVSS
VL: DVVMTQTPLSLPVSLGDQASISCRSSQSLVHRNGNTYLHWYLQKPGQSPKLLIYKVSNRFSGVPDRFSGSGSGTDFTLKISRVEAEDLGLYFCFQTTYVPNTFGGGTKLEIK
notes: Murine monoclonal antibody; also called murine parent
With B18 the LogEC50 (TAL ALκ liver extract) was ~3.03 -log(M), the Max (TAL ALκ liver extract) was ~35100 and the EC50 (rVλ6Wil fibrils) was 543 nM. For the same binder, the LogEC50 (rVλ6Wil fibrils) was 6.26 -log(M), the Max (rVλ6Wil fibrils) was 184 and the EC50 (Per125 wtATTR extract) was 1880 nM. For the same binder, the LogEC50 (Per125 wtATTR extract) was 5.72 -log(M), the Max (Per125 wtATTR extract) was 209 and the LogEC50 (SHI ALλ liver extract) was ~4.45 -log(M). For the same binder, the Max (SHI ALλ liver extract) was ~1510.
